Experimental data: patent US20250340902A1, “GENE THERAPY FOR BVES-RELATED DISORDERS” (OHIO STATE INNOVATION FOUNDATION, priority 2022, published 2025)

Key:
Assay in all cases: anti-HA co-IP from muscle, MS; CTRL 0
[1] = target: NADH dehydrogenase [ubiquinone] iron-sulfur protein 6, mitochondrial (Mus musculus) (UniProt P52503)
[2] = target: 40S ribosomal protein S27 (Mus musculus) (UniProt Q6ZWU9)
[3] = target: Sodium/calcium exchanger 1 (Mus musculus) (UniProt P70414)
[4] = target: Heterogeneous nuclear ribonucleoprotein H2 (Mus musculus) (UniProt P70333)
[5] = target: ATP-sensitive inward rectifier potassium channel 11 (Mus musculus) (UniProt Q61743)
[6] = target: Haloacid dehalogenase-like hydrolase domain-containing protein 2 (Mus musculus) (UniProt Q3UGR5)
[7] = target: Phosphatidylinositol 5-phosphate 4-kinase type-2 beta (Mus musculus) (UniProt Q80XI4)
[8] = target: Platelet glycoprotein 4 (Mus musculus) (UniProt Q08857)
[9] = target: Barrier-to-autointegration factor (Mus musculus) (UniProt O54962)
[10] = target: Popeye domain-containing protein 2 (Mus musculus) (UniProt Q9ES82)
[11] = target: Eukaryotic initiation factor 4A-III (Mus musculus) (UniProt Q91VC3)
Eukaryotic initiation factor 4A-III (Mus musculus), sequence (Q91VC3 whole entry): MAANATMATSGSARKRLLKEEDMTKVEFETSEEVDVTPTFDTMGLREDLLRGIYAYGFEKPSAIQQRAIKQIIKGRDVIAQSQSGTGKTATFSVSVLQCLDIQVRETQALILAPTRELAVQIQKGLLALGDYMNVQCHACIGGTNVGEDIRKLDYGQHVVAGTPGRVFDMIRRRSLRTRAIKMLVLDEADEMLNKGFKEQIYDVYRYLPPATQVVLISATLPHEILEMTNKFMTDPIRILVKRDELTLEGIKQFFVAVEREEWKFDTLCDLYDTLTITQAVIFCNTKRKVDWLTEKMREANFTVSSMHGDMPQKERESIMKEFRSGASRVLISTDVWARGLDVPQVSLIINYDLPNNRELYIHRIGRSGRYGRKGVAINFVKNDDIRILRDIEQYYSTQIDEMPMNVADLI

[12] = target: Long-chain specific acyl-CoA dehydrogenase, mitochondrial (Mus musculus) (UniProt P51174)
Long-chain specific acyl-CoA dehydrogenase, mitochondrial (Mus musculus), sequence (P51174 31-430 limits assumed): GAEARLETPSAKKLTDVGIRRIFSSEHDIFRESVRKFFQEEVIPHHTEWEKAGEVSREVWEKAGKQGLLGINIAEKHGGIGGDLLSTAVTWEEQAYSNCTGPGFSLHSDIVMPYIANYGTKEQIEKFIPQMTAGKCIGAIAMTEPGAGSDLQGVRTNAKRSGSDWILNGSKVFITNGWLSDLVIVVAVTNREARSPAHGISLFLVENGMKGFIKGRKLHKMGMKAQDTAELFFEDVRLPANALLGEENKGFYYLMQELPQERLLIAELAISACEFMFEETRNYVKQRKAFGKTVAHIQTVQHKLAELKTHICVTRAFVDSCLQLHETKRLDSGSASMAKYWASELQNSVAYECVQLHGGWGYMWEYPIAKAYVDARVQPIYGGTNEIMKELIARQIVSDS

[13] = target: E3 ubiquitin-protein ligase UBR4 (Mus musculus) (UniProt A2AN08)
[14] = target: Lupus La protein homolog (Mus musculus) (UniProt P32067)
[15] = target: Nucleolar and coiled-body phosphoprotein 1 (Mus musculus) (UniProt E9Q5C9)
[16] = target: Beta-sarcoglycan (Mus musculus) (UniProt P82349)
Ankyrin-2 (Mus musculus) = Ankyrin-2 (Mus musculus) (UniProt Q8C8R3)
[17] = target: Tetraspanin-8 (Mus musculus) (UniProt Q8R3G9)
[18] = target: LEM domain-containing protein 2 (Mus musculus) (UniProt Q6DVA0)
[19] = target: Glutathione S-transferase LANCL1 (Mus musculus) (UniProt O89112)
[20] = target: Alanine--tRNA ligase, cytoplasmic (Mus musculus) (UniProt Q8BGQ7)
[21] = target: Ferrochelatase, mitochondrial (Mus musculus) (UniProt P22315)
[22] = target: Keratin, type II cytoskeletal 7 (Mus musculus) (UniProt Q9DCV7)
[23] = target: Plasma membrane calcium-transporting ATPase 1 (Mus musculus) (UniProt G5E829)
[24] = target: Flavin reductase (NADPH) (Mus musculus) (UniProt Q923D2)
[25] = target: Delta-sarcoglycan (Mus musculus) (UniProt P82347)
[26] = target: Sodium/calcium exchanger 3 (Mus musculus) (UniProt S4R2P9)
[27] = target: ATPase family AAA domain-containing protein 3 (Mus musculus) (UniProt Q925I1)
[28] = target: Endoplasmic reticulum transmembrane helix translocase (Mus musculus) (UniProt Q9EPE9)
[29] = target: DnaJ homolog subfamily B member 2 (Mus musculus) (UniProt Q9QYI5)
[30] = target: Nucleolar protein 12 (Mus musculus) (UniProt Q8BG17)
[31] = target: Tubulin alpha-1B chain (Mus musculus) (UniProt P05213)
[32] = target: Charged multivesicular body protein 4b (Mus musculus) (UniProt Q9D8B3)
Sarcospan (Mus musculus) = Sarcospan (Mus musculus) (UniProt Q62147)
Sarcospan (Mus musculus), sequence (Q62147 whole entry): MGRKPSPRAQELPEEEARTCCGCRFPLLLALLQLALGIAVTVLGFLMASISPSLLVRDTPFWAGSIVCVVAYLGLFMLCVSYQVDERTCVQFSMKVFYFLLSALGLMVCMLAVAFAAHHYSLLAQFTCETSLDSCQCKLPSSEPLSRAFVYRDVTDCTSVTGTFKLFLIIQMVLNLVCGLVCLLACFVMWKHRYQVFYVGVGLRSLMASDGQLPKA

[33] = target: Glutamine amidotransferase-like class 1 domain-containing protein 3A, mitochondrial (Mus musculus) (UniProt Q9D172)
Glutamine amidotransferase-like class 1 domain-containing protein 3A, mitochondrial (Mus musculus), sequence (Q9D172 40-266 limits assumed): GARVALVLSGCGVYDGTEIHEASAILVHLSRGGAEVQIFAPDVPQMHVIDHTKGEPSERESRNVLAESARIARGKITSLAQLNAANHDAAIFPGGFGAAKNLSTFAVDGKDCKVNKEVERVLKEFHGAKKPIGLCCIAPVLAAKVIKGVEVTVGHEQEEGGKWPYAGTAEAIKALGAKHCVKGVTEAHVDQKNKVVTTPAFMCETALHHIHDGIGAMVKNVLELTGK

[34] = target: Translocation protein SEC62 (Mus musculus) (UniProt Q8BU14)
Translocation protein SEC62 (Mus musculus), sequence (Q8BU14 whole entry): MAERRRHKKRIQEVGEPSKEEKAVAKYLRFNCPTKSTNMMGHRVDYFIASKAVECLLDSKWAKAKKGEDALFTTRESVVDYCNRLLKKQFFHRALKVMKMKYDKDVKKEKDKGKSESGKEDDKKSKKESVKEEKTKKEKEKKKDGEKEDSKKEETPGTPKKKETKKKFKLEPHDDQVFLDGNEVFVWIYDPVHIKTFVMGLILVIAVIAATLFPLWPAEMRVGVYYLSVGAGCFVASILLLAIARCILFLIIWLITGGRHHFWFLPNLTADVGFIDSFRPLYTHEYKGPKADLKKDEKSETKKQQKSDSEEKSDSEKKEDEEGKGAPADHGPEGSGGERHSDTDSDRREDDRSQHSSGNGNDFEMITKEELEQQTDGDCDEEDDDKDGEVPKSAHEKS

[35] = target: Nuclear speckle splicing regulatory protein 1 (Mus musculus) (UniProt Q5NCR9)
[36] = target: Transcriptional regulator ATRX (Mus musculus) (UniProt Q61687)
Transcriptional regulator ATRX (Mus musculus), sequence (Q61687 whole entry): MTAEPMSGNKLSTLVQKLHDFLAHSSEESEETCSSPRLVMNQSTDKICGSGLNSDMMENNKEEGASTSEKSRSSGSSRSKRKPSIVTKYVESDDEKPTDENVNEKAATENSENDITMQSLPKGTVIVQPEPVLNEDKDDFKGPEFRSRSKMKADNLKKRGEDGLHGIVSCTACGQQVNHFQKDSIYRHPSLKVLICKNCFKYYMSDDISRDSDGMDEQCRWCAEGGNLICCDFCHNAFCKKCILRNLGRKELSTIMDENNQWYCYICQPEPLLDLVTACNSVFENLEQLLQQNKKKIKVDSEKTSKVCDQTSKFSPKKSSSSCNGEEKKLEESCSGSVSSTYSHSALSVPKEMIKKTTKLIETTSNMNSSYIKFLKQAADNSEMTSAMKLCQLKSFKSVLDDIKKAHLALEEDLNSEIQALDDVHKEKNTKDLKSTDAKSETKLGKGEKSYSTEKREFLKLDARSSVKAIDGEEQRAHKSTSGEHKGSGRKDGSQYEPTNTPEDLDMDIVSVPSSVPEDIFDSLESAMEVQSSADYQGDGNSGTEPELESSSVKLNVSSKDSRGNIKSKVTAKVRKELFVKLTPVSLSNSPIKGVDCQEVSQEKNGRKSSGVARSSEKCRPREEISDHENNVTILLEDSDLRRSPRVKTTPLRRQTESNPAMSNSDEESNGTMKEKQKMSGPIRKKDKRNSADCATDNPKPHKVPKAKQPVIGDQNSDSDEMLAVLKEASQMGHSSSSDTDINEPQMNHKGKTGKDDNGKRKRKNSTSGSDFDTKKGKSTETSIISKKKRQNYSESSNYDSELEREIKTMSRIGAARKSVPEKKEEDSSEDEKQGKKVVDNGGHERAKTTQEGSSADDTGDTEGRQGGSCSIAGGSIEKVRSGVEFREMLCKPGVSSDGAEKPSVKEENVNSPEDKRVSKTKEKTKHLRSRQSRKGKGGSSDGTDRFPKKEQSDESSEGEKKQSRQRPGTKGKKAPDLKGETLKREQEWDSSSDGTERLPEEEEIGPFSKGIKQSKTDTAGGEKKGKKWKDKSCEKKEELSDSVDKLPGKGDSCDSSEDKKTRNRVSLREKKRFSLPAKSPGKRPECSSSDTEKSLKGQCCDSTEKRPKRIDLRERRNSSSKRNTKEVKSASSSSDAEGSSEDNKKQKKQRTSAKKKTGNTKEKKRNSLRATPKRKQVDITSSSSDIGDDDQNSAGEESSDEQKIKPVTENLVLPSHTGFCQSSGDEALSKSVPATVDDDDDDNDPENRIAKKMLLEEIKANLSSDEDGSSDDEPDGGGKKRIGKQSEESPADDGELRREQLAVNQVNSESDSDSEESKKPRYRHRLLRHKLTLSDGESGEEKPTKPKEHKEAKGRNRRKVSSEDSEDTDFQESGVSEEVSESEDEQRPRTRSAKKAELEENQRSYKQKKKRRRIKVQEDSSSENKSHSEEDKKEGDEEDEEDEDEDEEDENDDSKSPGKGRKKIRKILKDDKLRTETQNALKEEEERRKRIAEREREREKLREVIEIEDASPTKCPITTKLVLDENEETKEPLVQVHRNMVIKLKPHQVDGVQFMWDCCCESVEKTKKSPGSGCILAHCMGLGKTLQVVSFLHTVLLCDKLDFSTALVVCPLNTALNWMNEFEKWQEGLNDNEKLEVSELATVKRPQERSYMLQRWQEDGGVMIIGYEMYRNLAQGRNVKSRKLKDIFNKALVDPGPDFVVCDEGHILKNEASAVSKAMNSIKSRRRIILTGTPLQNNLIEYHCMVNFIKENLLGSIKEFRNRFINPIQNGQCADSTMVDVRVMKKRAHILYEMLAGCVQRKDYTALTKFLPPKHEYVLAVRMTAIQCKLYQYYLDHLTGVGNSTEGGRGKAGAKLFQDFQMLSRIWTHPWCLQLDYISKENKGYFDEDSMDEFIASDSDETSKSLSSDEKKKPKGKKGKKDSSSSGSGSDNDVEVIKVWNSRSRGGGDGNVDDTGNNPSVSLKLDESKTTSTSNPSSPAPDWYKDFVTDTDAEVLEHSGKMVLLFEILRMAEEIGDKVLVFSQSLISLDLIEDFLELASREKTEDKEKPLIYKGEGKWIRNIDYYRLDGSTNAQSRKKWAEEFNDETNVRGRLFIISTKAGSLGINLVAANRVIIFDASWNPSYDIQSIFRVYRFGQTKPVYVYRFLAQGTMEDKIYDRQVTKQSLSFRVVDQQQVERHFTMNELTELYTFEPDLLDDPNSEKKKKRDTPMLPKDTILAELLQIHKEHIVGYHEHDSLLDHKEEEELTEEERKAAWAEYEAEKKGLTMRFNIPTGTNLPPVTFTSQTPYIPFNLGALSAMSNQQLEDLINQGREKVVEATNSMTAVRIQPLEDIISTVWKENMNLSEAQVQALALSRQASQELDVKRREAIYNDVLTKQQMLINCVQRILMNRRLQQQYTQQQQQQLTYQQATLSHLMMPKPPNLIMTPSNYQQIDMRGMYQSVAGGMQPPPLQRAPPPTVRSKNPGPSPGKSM

Sodium/calcium exchanger 1 (Mus musculus), sequence (P70414 33-970 limits assumed): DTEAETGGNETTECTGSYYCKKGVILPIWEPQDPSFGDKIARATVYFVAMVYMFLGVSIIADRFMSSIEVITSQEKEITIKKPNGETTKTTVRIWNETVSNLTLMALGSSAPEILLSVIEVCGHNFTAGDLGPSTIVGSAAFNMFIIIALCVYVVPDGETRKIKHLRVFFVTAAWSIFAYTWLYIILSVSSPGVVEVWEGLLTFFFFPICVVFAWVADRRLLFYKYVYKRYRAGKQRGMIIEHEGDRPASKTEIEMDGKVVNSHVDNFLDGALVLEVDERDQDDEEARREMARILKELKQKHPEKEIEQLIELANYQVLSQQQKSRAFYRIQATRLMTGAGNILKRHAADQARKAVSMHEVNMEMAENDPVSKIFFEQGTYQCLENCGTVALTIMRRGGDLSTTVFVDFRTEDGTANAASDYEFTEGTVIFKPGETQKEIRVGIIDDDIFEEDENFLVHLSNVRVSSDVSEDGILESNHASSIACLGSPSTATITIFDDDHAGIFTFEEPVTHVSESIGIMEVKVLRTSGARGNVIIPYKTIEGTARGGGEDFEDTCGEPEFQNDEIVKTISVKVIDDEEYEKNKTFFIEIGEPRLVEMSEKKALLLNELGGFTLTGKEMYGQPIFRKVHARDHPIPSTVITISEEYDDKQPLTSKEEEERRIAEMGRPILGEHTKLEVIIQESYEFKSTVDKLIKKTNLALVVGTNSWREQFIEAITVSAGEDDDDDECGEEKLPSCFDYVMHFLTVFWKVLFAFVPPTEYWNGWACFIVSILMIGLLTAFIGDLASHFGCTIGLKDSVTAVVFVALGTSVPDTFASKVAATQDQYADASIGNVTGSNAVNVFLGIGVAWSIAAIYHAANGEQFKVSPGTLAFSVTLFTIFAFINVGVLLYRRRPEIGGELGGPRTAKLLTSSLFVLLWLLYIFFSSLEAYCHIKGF

human BVES fused with 3xHA tag (from UniProt Q8NE79 1-360)
AAV9-BVES-HA (IP-MS count) [1]: 2
AAV9-BVES-HA (IP-MS count) [2]: 2
AAV9-BVES-HA (IP-MS count) [3]: 2
AAV9-BVES-HA (IP-MS count) [4]: 4
AAV9-BVES-HA (IP-MS count) [5]: 4
AAV9-BVES-HA (IP-MS count) [6]: 3
AAV9-BVES-HA (IP-MS count) [7]: 2
AAV9-BVES-HA (IP-MS count) [8]: 2
AAV9-BVES-HA (IP-MS count) [9]: 3
AAV9-BVES-HA (IP-MS count) [10]: 29
AAV9-BVES-HA (IP-MS count) [11]: 3
AAV9-BVES-HA (IP-MS count) [12]: 4
AAV9-BVES-HA (IP-MS count) [13]: 4
AAV9-BVES-HA (IP-MS count) [14]: 2
AAV9-BVES-HA (IP-MS count) [15]: 3
AAV9-BVES-HA (IP-MS count) [16]: 9
AAV9-BVES-HA (IP-MS count) (Ankyrin-2 (Mus musculus)): 36
AAV9-BVES-HA (IP-MS count) [17]: 2
AAV9-BVES-HA (IP-MS count) [18]: 2
AAV9-BVES-HA (IP-MS count) [19]: 2
AAV9-BVES-HA (IP-MS count) [20]: 4
AAV9-BVES-HA (IP-MS count) [21]: 2
AAV9-BVES-HA (IP-MS count) [22]: 17
AAV9-BVES-HA (IP-MS count) [23]: 34
AAV9-BVES-HA (IP-MS count) [24]: 2
AAV9-BVES-HA (IP-MS count) [25]: 5
AAV9-BVES-HA (IP-MS count) [26]: 3
AAV9-BVES-HA (IP-MS count) [27]: 3
AAV9-BVES-HA (IP-MS count) [28]: 3
AAV9-BVES-HA (IP-MS count) [29]: 2
AAV9-BVES-HA (IP-MS count) [30]: 2
AAV9-BVES-HA (IP-MS count) [31]: 13
AAV9-BVES-HA (IP-MS count) [32]: 2
AAV9-BVES-HA (IP-MS count) (Sarcospan (Mus musculus)): 2
AAV9-BVES-HA (IP-MS count) [33]: 4
AAV9-BVES-HA (IP-MS count) [34]: 2
AAV9-BVES-HA (IP-MS count) [35]: 2
AAV9-BVES-HA (IP-MS count) [36]: 6
